Measured values taken from publication PMC13218038 (ACS Nano, 2026).

Molecular target: the molecule itself
Test: SDS-PAGE of unboiled and boiled samples

B1: cholera toxin B-subunit (CTB) (natural protein)
chain: TPQNITDLCAEYHNTQIYTLNDKIFSYTESLAGKREMAIITFKNGAIFQVEVPGSQHIDSQKKAIERMKDTLRIAYLTEAKVEKLCVWNNKTPHAIAAISMAN
- stoichiometry N: 5
